From patent US9428783B2, “DNA encoding dipeptide-synthesizing enzyme (variants), bacterium belonging to the genus Escherichia, and methods for producing dipeptides using thereof” (Ajinomoto Co., Inc., priority 2012, dated 2016)

B1: DES: pyridoxal-phosphate dependent enzyme from Desmospora sp. 8437, SEQ ID NO: 6; tested as MBP fused His6-tagged DES (protein)
chain: MKKKLLFVEGNTTGTGILALEKARKLGYEPVFLTQEASRYDGLPEAKCRVHVTVTDSIHELKRCVSQEKAEAVAGILTTSDYYLEISAKLVQELGLTGNSPQAIHLCRNKALYREKLRSKSVPQPNFHIIRSMEDLRETRESVPLPCLVKPADDSGSNNVRLCFSWGEVEQLTSKILKIERNARGQKTSQTVLLEEYIEGPEYSVEMFSWQGKSTCIGITEKQLTGYPYFVESGHVFPAVLPTDVQQEIEKTVKQSLEAVHFQFGASHSEVKWTPNGCVMIETNARLAGGMIPELVRHSTGVDLIEQQILCAAGVAPHWKQVVPTGCSGIHFIVAAEAGRLSSVDNLEAVRKLPGVEEMMVKAQVGQAVQPPKNFSDRLGHVIVSGKSYEEVVERLHKISNMISLKIS
modifications: MBP fusion, His6 tag; Desmospora sp. 8437
B2: BBR47_51900: L-amino acid α-ligase (hypothetical protein) from Brevibacillus brevis NBRC 100599, SEQ ID NO: 2 (protein)
chain: MNKHFLFVEANTTGTGMLAMKKARKLGFTPVFFTEKPERYHGLNELECHVVVTDTNSQAELTDSVAQVSKEGREIAGIMSTSDYYLESVAKLARKFGWISNSLEAIEACRNKAIFREKLQRHQVSQPTFLAISSMEQLLEARSSISLPCVVKPADDSGSNNVRLCFSWDEVEHMAAEILAIKYNARGQETARTVLLEQYAEGPEFSVETFSWQGQCFVIGITQKRLTGYPFFVEAGHIFPAPLSVEEKQEIERTVERALAAVKYQFGAAHTEVKWTSAGCVVIEVNARLAGGMIPELVRRSTGIDLLLQQIRCAAGLEPELSQTIEEQRCAGIHFLVSESQGTFGGIKGMDTVRNLPGIAEVAIHAKIGQNVQPPQNFSHRLGYVIVEGKHYSETAELIEQVKDSLSVQVGQQLESGV
modifications: Brevibacillus brevis NBRC 100599

How the values were obtained:
Assay type in all cases: biochemical
[1] = Asp-Phe synthesizing activity of MBP fused His6-tagged DES; settings: 160 μg DES, 100 mM L-Asp, 100 mM L-Phe, 10 mM ATP, pH 9.0, 37° C., 15 hours
Description: Dipeptides synthesized by MBP fused His6-tagged DES were determined using HPLC analysis of reaction mixture of total volume of 400 μL, which contained:
Reactions were carried out at 37° C. for 15 hours. Then the reaction mixture, into which 10 μl of 1 M EDTA, pH9.0 was added to stop the enzymatic reaction, was subjected to HPLC analysis. The conditions were as described in Example 4. As a result, DES catalyzes formation of 0.30 mM Asp-Phe.

[2] = Preliminary analysis of substrate specificity by TLC; settings: 4 μg enzyme, 10 mM each amino acid, 10 mM ATP, pH 8.0, 32° C., 15 hours
Text: The substrate specificity of BBR47_51900 and Staur_4851 was studied in the reaction mixture containing the enzyme and canonical L-amino acids such as L-alanine, L-arginine, L-asparagine, L-aspartic acid, L-cysteine, glycine, L-glutamic acid, L-glutamine, L-histidine, L-isoleucine, L-leucine, L-lysine, L-methionine, L-phenylalanine, L-proline, L-serine, L-threonine, L-tryptophan, L-tyrosine, and L-valine, or salts thereof, of the same or two different kinds. The composition of the reaction mixture of total volume of 50 μL was as follows unless otherwise noted:
Reactions were carried out at 32° C. for 15 hours. 1-2 μL of reaction mixture was subjected to thin layer chromatography (TLC) analysis using as mobile phase the mixture of 2-propanol:acetone:250 mM ammonia:H2O as 100:100:12:28. […] Detection was performed at 540 nm. The new spots on TLC-plates were detected after developing the reaction mixtures, which contained: […]

[3] = HPLC determination of dipeptides synthesized by the enzymes; settings: 160 μg enzyme, 10 mM substrates, 10 mM ATP, pH 9.0, 32° C., 15 hours
Description: Dipeptides synthesized by BBR47_51900 and Staur_4851 were determined using HPLC analysis of reaction mixtures of total volume of 400 μL, which contained:
Reactions were carried out at 32° C. for 15 hours. Then […] of reaction mixture was filtered through the Amicon Ultra-0.5 mL, 3K Centrifugal Filters (Millipore, #UFC500396) and subjected to HPLC analysis.
The conditions were as follows: • Equipment: HITACHI L-2000 series. • Column: Inertsil ODS-3 4.6×250 mm, […] (GL Sciences Inc.). • Temperature: 40° C. • Buffers:
A (for mixture L-Asp/L-Val and L-Glu/L-Val): 0.1 M KH2PO4 (pH 2.2)+5 mM octanesulfonate, sodium salt: CH3CN as 4:1 (v/v),
B (for mixture L-Asp/L-Phe): 0.1 M KH2PO4 (pH 2.2)+5 mM octanesulfonate, sodium salt: CH3CN as 7:3 (v/v),
C (for mixture L-Asp/L-PheOMe, L-Asp/L-Trp, and L-Val/L-Val): 0.1 M KH2PO4 (pH 2.2)+5 mM octanesulfonate, sodium salt:CH3CN as 3:2 (v/v),
D (for mixture L-Phe/L-Phe): 0.1 M KH2PO4 (pH 2.2)+5 mM octanesulfonate, sodium salt: CH3CN as 1:1 (v/v). • Gradient profile: isocratic. • Flow rate: 1.5 mL/min. • Injection volume: 10 μL. • Detection: UV 210 nm.
Solution of αGlu-Val, γGlu-Val, αAsp-Val (10 mM each) and αAsp-Phe, βAsp-Phe (5 mM each) were prepared for HPLC analysis. The concentration of a dipeptide formed was determined using corresponding calibration curves. Each solution with standard sample was diluted to 50-folds or 100-folds for LC-QTOF/MS/MS analysis (Example 5).

[4] = LC-QTOF/MS/MS determination of dipeptides synthesized; settings: reaction mixtures of Example 4
Text: Samples of reaction mixtures and standard solutions obtained as described in Example 4 were subjected to LC-QTOF/MS/MS analysis.
The conditions were as follows:
Equipment: LC (Agilent1200SL), MS (Micromass Q-TOF Premier)
Column: Develosil C30 2.0×250 mm, 3 μm (Nomura Chemical).
Buffers: • A: H2O (0.025% Formic acid), • B: CH3CN (0.025% Formic acid).

[5] = Enzymatic production of Asp-Phe using ATP regeneration system; settings: 0.15 U enzyme, 100 mM L-AspNa, 100 mM L-Phe, 37° C.
Description: The product yield of Asp-Phe was studied in the reaction mixture of BBR47_51900 and Staur_4851 containing phosphoenolpyruvate and pyruvate kinase for regeneration of ATP in order to prevent highly concentrated ATP from inhibiting the enzyme reaction. The composition of the reaction mixture of total volume of 1 ml was as follows.
Reactions were carried out at 37° C. for 1-48 hours. 100 μL out of the 1 mL reaction mixture was sampled at each reaction time. Each reaction mixture, into which 10 μL of 1 M EDTA (pH9.0) was added to stop the reaction, was subjected to HPLC analysis. The condition was as described in Example 4. As a result, BBR47_51900 and Staur_4851 could produce Asp-Phe in the ATP regeneration system (Table 9).

Molecule	Asp-Phe formed [1] [mM]	L-amino acid pairs giving new spots on TLC-plates (ligation) [2]	Dipeptides (mM) Asp-Phe [3] [mM]	Dipeptides (mM) Asp-PheOMe [3] [mM]	Dipeptides (mM) Asp-Trp [3] [mM]	Dipeptides (mM) Asp-Val [3] [mM]	Dipeptides (mM) Glu-Val [3] [mM]	Dipeptides whose formation is catalyzed (LC-QTOF/MS/MS) [4]	Asp-Phe ([5]; 1 hr) [mM]	Asp-Phe ([5]; 2 hr) [mM]	Asp-Phe ([5]; 4 hr) [mM]	Asp-Phe ([5]; 8 hr) [mM]	Asp-Phe ([5]; 24 hr) [mM]	Asp-Phe ([5]; 48 hr) [mM]
B1	0.30	–	–	–	–	–	–	–	–	–	–	–	–	–
B2	–	L-Glu/L-Glu, or L-Glu/L-Asp, or L-Glu/L-Val, or L-Glu/L-Ile, or L-Asp/L-Ile, or L-Asp/L-Val	1.22	0.03	0.13	3.9	1.48	αAsp-Phe, αAsp-Val, and αGlu-Val	7	13	24	40	68	74
